Assay results: PMC8854392 (2022)

Experiments:
[1] = biological target: Cy.003 Fab:CyRPA complex, formed beforehand and purified by SEC (Plasmodium falciparum (3D7 clone) | …, UniProt Q8IFM8 29-362); assay: SPR; PBS+P20
[2] = biological target: Cy.007 Fab:CyRPA complex, formed beforehand and purified by SEC (Plasmodium falciparum (3D7 clone) | …, UniProt Q8IFM8 29-362); assay: SPR; PBS+P20
[3] = biological target: T1, Cy.002 Fab:CyRPA complex, formed beforehand and purified by SEC (Plasmodium falciparum (3D7 clone) | …, UniProt Q8IFM8 29-362); assay: SPR; PBS+P20
[4] = biological target: Cy.009 Fab:CyRPA complex, formed beforehand and purified by SEC (Plasmodium falciparum (3D7 clone) | …, UniProt Q8IFM8 29-362); assay: SPR; TBS+P20, 1 mM CaCl2
[5] = biological target: Cy.004 Fab:CyRPA complex, formed beforehand and purified by SEC (Plasmodium falciparum (3D7 clone) | …, UniProt Q8IFM8 29-362); assay: SPR; TBS+P20, 1 mM CaCl2
[6] = biological target: T1, Cy.002 Fab:CyRPA complex, formed …; assay: SPR; TBS+P20, 1 mM CaCl2

B1: Cy.009, chimeric anti-CyRPA monoclonal antibody (chicken variable domains, human IgG1) (antibody, V domains shown)
VH: AVTLDESGGGLQTPGGALSLVCKASGFTFSDYAMGWVRQAPGKGLEYVAGIKSDGSFTLYGSTVKGRATISRDNGQSIVRLQLNNLRAEDTGTYYCAKSDDNGGHYSDFSGEIDAWGHGTEVIVSS
VL: RCALTQPSSVSANPGETVKITCSGSSYSYGWYQQKSPGSAPVTVIYYNDKRPSDIPSRFSGSKSGSTGTLTITGVQAEDEAVYFCGNSDSRNAAFGAGTTLTVL
- Kd [1]: 260 nM
- Kd [2]: 2100 nM
- Kd [3]: 1500 nM
- koff [3]: 0.17 s⁻¹

B2: Cy.004, chimeric anti-CyRPA monoclonal antibody (chicken variable domains, human IgG1) (antibody, V domains shown)
VH: AVTLDESGGGLQTPGGALSLVCKASGFDFSSYAMGWVRQAPGKGLEYVAGIRNDGSFTLYTPAVKGRATISRDNGQSTVRLQLNNLRAEDTATYFCTKSADDGGHYSDFSGEIDAWGHGTEVIVSS
VL: RCALTQPSSVSANPGETVKITCSGSTYNYGWYQQKSPGSAPVTVIYYNDKRPSDIPSRFSGSKSGSTGTLTITGVQAEDEAVYYCGNSDSRNVAFGAGTTLTVL
- Kd [1]: 410 nM
- Kd [2]: 390 nM
- Kd [3]: 1800 nM
- koff [3]: 0.39 s⁻¹

B3: Cy.003, chimeric anti-CyRPA monoclonal antibody (chicken variable domains, human IgG1) (antibody, V domains shown)
VH: AVTLDESGGGLQTPGGALSLVCKGSGFFSFSSYTMQWVRQAPGKGLEWVASISSGGGTNYGAAVKGRATISRDNGQSTLRLQLNNLRAEDTGTYYCAKHGVNGCDWSYSVGCVDAWGHGTEVIVSS
VL: RCALTQPSSVSANPGETVKITCSGGSSSYYGWYQQKSPGSAPVTLIYNNQKRPSDIPSRFSGSKSGSTGTLTITGVQAEDEAVYFCGSRDNSGGIFGAGTTLTVL
- Kd [4]: 8.6 nM
- Kd [5]: 13 nM
- Kd [6]: 77 nM
- koff [6]: 0.0048 s⁻¹

B4: Cy.007, chimeric anti-CyRPA monoclonal antibody (chicken variable domains, human IgG1) (antibody, V domains shown)
VH: AVTLDESGGGLQTPGGTLSLVCKGSGFTFSSYEMQWVRQAPGKGLEWVADICIGGSYTGYGPAVKGRATISRDDGQSTVRLQLNNLRAEDTGTYYCAKTARSDYCITGLDDIDAWGHGTEVIVSS
VL: RCALTQPSSVSANPGETVKITCSGGSSDYGWYQQKSPGSAPVTVIYENNKRPSDIPSRFSGSKFGSTHTLTITGVQADDEAVYFCGSRDTNNGAFGAGTTLTVL
- Kd [4]: 2.6 nM
- Kd [5]: 1.6 nM
- Kd [6]: 11 nM
- koff [6]: 0.0024 s⁻¹
